Kd and donor lifetime τDA of FMAL-actin with 20 μM TMR-C0-C2^Cys225 (τD = 4.2 ns) data for two substances are collected here from paper doi:10.1101/2021.03.24.436879.

The experiment has as its target F-actin labeled at Cys-374 with fluorescein-5-maleimide (FMAL-actin) (rabbit) (UniProt P68135). Briefly: FRET or BRET.

“TMR-C0-C2^Cys225 of human cMyBP-C phosphorylated by PKA (domain or fragment)” registered a Kd of 3000 nM.
“single-cysteine C0-C2^Cys225 of human cMyBP-C labeled with tetramethylrhodamine (TMR-C0-C2^Cys225) (domain or fragment)” registered a Kd of 1000 nM and a donor lifetime τDA of FMAL-actin with 20 μM TMR-C0-C2^Cys225 (τD = 4.2 ns) of 2 ns.

One may read the Kd as a measure of binding affinity in units of concentration. A lower Kd goes with higher affinity.
